Measurements from the Human Domainome abundance scans (Beltran et al. 2025).
± gives the uncertainty stated by the source.

B1: Mineralocorticoid receptor, residues 600 to 675; numbered along this chain, P08235 (parent)
chain: SKICLVCGDEASGCHYGVVTCGSCKVFFKRAVEGQHNYLCAGRNDCIIDKIRRKNCPACRLQKCLQAGMNLGARKS

Variants of: B1
Experiment: abundance fitness (aPCA) (normalised: wild type 0, dead -1); higher = more abundant; growth selection in yeast, the domain comes from the species named
Settings: Homo sapiens

Compared with SKICLVCGDEAWGCHYGVVTCGSCKVFFKRAVEGQHNYLCAGRNDCIIDKIRRKNCPACRLQKCLQAGMNLGARKS [S12W], SKICLVCGDEAYGCHYGVVTCGSCKVFFKRAVEGQHNYLCAGRNDCIIDKIRRKNCPACRLQKCLQAGMNLGARKS [S12Y] is higher in abundance fitness: -0.191 ± 0.12 for the first, 0.096 ± 0.11 for the second.

SKICLVCGDEASGCAYGVVTCGSCKVFFKRAVEGQHNYLCAGRNDCIIDKIRRKNCPACRLQKCLQAGMNLGARKS [H15A] and SKICLVCGDEASGNHYGVVTCGSCKVFFKRAVEGQHNYLCAGRNDCIIDKIRRKNCPACRLQKCLQAGMNLGARKS [C14N] are within error of each other in abundance fitness: -0.062 ± 0.045 for the first, -0.047 ± 0.11 for the second.

SKICLVCGDEASGDHYGVVTCGSCKVFFKRAVEGQHNYLCAGRNDCIIDKIRRKNCPACRLQKCLQAGMNLGARKS [C14D] and SKICLVCGDEASGEHYGVVTCGSCKVFFKRAVEGQHNYLCAGRNDCIIDKIRRKNCPACRLQKCLQAGMNLGARKS [C14E] are within error of each other in abundance fitness: -0.011 ± 0.093 for the first, -0.012 ± 0.058 for the second.

SKICLVCGDEASGHHYGVVTCGSCKVFFKRAVEGQHNYLCAGRNDCIIDKIRRKNCPACRLQKCLQAGMNLGARKS [C14H] and SKICLVCGDEASGMHYGVVTCGSCKVFFKRAVEGQHNYLCAGRNDCIIDKIRRKNCPACRLQKCLQAGMNLGARKS [C14M] are within error of each other in abundance fitness: -0.003 ± 0.092 for the first, 0.015 ± 0.06 for the second.

SKICLVCGDEASGRHYGVVTCGSCKVFFKRAVEGQHNYLCAGRNDCIIDKIRRKNCPACRLQKCLQAGMNLGARKS [C14R] and SKICLVCGDEASGLHYGVVTCGSCKVFFKRAVEGQHNYLCAGRNDCIIDKIRRKNCPACRLQKCLQAGMNLGARKS [C14L] are within error of each other in abundance fitness: -0.062 ± 0.041 for the first, -0.103 ± 0.048 for the second.

SKICLVCGDEASGWHYGVVTCGSCKVFFKRAVEGQHNYLCAGRNDCIIDKIRRKNCPACRLQKCLQAGMNLGARKS [C14W] and SKICLVCGDEASGTHYGVVTCGSCKVFFKRAVEGQHNYLCAGRNDCIIDKIRRKNCPACRLQKCLQAGMNLGARKS [C14T] are within error of each other in abundance fitness: -0.049 ± 0.05 for the first, -0.09 ± 0.05 for the second.

SKICLVCGDEASGGHYGVVTCGSCKVFFKRAVEGQHNYLCAGRNDCIIDKIRRKNCPACRLQKCLQAGMNLGARKS [C14G] and SKICLVCGDEASGQHYGVVTCGSCKVFFKRAVEGQHNYLCAGRNDCIIDKIRRKNCPACRLQKCLQAGMNLGARKS [C14Q] are within error of each other in abundance fitness: -0.077 ± 0.055 for the first, 0.013 ± 0.054 for the second.

SKICLVCGDEASGFHYGVVTCGSCKVFFKRAVEGQHNYLCAGRNDCIIDKIRRKNCPACRLQKCLQAGMNLGARKS [C14F] and SKICLVCGDEASGAHYGVVTCGSCKVFFKRAVEGQHNYLCAGRNDCIIDKIRRKNCPACRLQKCLQAGMNLGARKS [C14A] are within error of each other in abundance fitness: -0.146 ± 0.12 for the first, -0.027 ± 0.046 for the second.

SKICLVCGDEASGYHYGVVTCGSCKVFFKRAVEGQHNYLCAGRNDCIIDKIRRKNCPACRLQKCLQAGMNLGARKS [C14Y] and SKICLVCGDEASGVHYGVVTCGSCKVFFKRAVEGQHNYLCAGRNDCIIDKIRRKNCPACRLQKCLQAGMNLGARKS [C14V] are within error of each other in abundance fitness: -0.069 ± 0.11 for the first, -0.008 ± 0.044 for the second.

SKICLVCGDEASGPHYGVVTCGSCKVFFKRAVEGQHNYLCAGRNDCIIDKIRRKNCPACRLQKCLQAGMNLGARKS [C14P] and SKICLVCGDEASRCHYGVVTCGSCKVFFKRAVEGQHNYLCAGRNDCIIDKIRRKNCPACRLQKCLQAGMNLGARKS [G13R] are within error of each other in abundance fitness: -0.072 ± 0.074 for the first, 0.028 ± 0.043 for the second.

SKICLVCGDEASSCHYGVVTCGSCKVFFKRAVEGQHNYLCAGRNDCIIDKIRRKNCPACRLQKCLQAGMNLGARKS [G13S] and SKICLVCGDEASKCHYGVVTCGSCKVFFKRAVEGQHNYLCAGRNDCIIDKIRRKNCPACRLQKCLQAGMNLGARKS [G13K] are within error of each other in abundance fitness: -0.033 ± 0.05 for the first, 0.019 ± 0.064 for the second.

Compared with SKICLVCGDEASACHYGVVTCGSCKVFFKRAVEGQHNYLCAGRNDCIIDKIRRKNCPACRLQKCLQAGMNLGARKS [G13A], SKICLVCGDEASYCHYGVVTCGSCKVFFKRAVEGQHNYLCAGRNDCIIDKIRRKNCPACRLQKCLQAGMNLGARKS [G13Y] is lower in abundance fitness: -0.111 ± 0.042 for the first, -0.259 ± 0.1 for the second.

SKICLVCGDEASQCHYGVVTCGSCKVFFKRAVEGQHNYLCAGRNDCIIDKIRRKNCPACRLQKCLQAGMNLGARKS [G13Q] and SKICLVCGDEASFCHYGVVTCGSCKVFFKRAVEGQHNYLCAGRNDCIIDKIRRKNCPACRLQKCLQAGMNLGARKS [G13F] are within error of each other in abundance fitness: 0.032 ± 0.053 for the first, -0.047 ± 0.085 for the second.

SKICLVCGDEASICHYGVVTCGSCKVFFKRAVEGQHNYLCAGRNDCIIDKIRRKNCPACRLQKCLQAGMNLGARKS [G13I] and SKICLVCGDEASMCHYGVVTCGSCKVFFKRAVEGQHNYLCAGRNDCIIDKIRRKNCPACRLQKCLQAGMNLGARKS [G13M] are within error of each other in abundance fitness: -0.146 ± 0.091 for the first, -0.035 ± 0.046 for the second.

SKICLVCGDEASPCHYGVVTCGSCKVFFKRAVEGQHNYLCAGRNDCIIDKIRRKNCPACRLQKCLQAGMNLGARKS [G13P] and SKICLVCGDEASLCHYGVVTCGSCKVFFKRAVEGQHNYLCAGRNDCIIDKIRRKNCPACRLQKCLQAGMNLGARKS [G13L] are within error of each other in abundance fitness: -0.157 ± 0.061 for the first, -0.073 ± 0.04 for the second.

SKICLVCGDEASNCHYGVVTCGSCKVFFKRAVEGQHNYLCAGRNDCIIDKIRRKNCPACRLQKCLQAGMNLGARKS [G13N] and SKICLVCGDEASHCHYGVVTCGSCKVFFKRAVEGQHNYLCAGRNDCIIDKIRRKNCPACRLQKCLQAGMNLGARKS [G13H] are within error of each other in abundance fitness: 0.043 ± 0.1 for the first, -0.016 ± 0.064 for the second.

SKICLVCGDEASWCHYGVVTCGSCKVFFKRAVEGQHNYLCAGRNDCIIDKIRRKNCPACRLQKCLQAGMNLGARKS [G13W] and SKICLVCGDEASCCHYGVVTCGSCKVFFKRAVEGQHNYLCAGRNDCIIDKIRRKNCPACRLQKCLQAGMNLGARKS [G13C] are within error of each other in abundance fitness: -0.268 ± 0.065 for the first, -0.407 ± 0.094 for the second.

First: SKICLVCGDEASTCHYGVVTCGSCKVFFKRAVEGQHNYLCAGRNDCIIDKIRRKNCPACRLQKCLQAGMNLGARKS [G13T]
Second: SKICLVCGDEASVCHYGVVTCGSCKVFFKRAVEGQHNYLCAGRNDCIIDKIRRKNCPACRLQKCLQAGMNLGARKS [G13V]
The abundance fitness of the first is higher: 0.016 ± 0.059 for the first, -0.092 ± 0.04 for the second.
